These results are taken from publication PMC5678893.

The target of test [1] is His-tagged cytoplasmic fragment (CF) of the E. coli aspartate chemoreceptor, 4Q (E. coli). The test can be described thus: co-sedimentation.
Test [2] addresses all active complexes of the different constructs assembled with vesicles, PEG, or Ni(II). The test can be described thus: co-sedimentation.

B1: CheA (enzyme)
chain: MSMDISDFYQTFFDEADELLADMEQHLLVLQPEAPDAEQLNAIFRAAHSIKGGAGTFGFSVLQETTHLMENLLDEARRGEMQLNTDIINLFLETKDIMQEQLDAYKQSQEPDAASFDYICQALRQLALEAKGETPSAVTRLSVVAKSEPQDEQSRSQSPRRIILSRLKAGEVDLLEEELGHLTTLTDVVKGADSLSAILPGDIAEDDITAVLCFVIEADQITFETVEVSPKISTPPVLKLAAEQAPTGRVEREKTTRSNESTSIRVAVEKVDQLINLVGELVITQSMLAQRSSELDPVNHGDLITSMGQLQRNARDLQESVMSIRMMPMEYVFSRYPRLVRDLAGKLGKQVELTLVGSSTELDKSLIERIIDPLTHLVRNSLDHGIELPEKRLAAGKNSVGNLILSAEHQGGNICIEVTDDGAGLNRERILAKAASQGLTVSENMSDDEVAMLIFAPGFSTAEQVTDVSGRGVGMDVVKRNIQKMGGHVEIQSKQGTGTTIRILLPLTLAILDGMSVRVADEVFILPLNAVMESLQPREADLHPLAGGERVLEVRGEYLPIVELWKVFNVAGAKTEATQGIVVILQSGGRRYALLVDQLIGQHQVVVKNLESNYRKVPGISAATILGDGSVALIVDVSALQAINREQRMANTAA
As to B1, in test [1], the percent bound is less than 15%; the sedimentation relative to the optimal NiCl2 sample turned out to be 50%; the sedimented (bound) concentration, maximum at 4 h is 5.8 µM.

B2: CheW (natural protein)
chain: MTGMTNVTKLASEPSGQEFLVFTLGDEEYGIDILKVQEIRGYDQVTRIANTPAFIKGVTNLRGVIVPIVDLRIKFSQVDVDYNDNTVVIVLNLGQRVVGIVVDGVSDVLSLTAEQIRPAPEFAVTLSTEYLTGLGALGDRMLILVNIEKLLNSEEMALLDSAASEVA
B2 had a stoichiometry N (CheW per 6 CF) in test [2] of 2.1 to 3. In addition, in test [1], the percent bound was less than 15%; the sedimentation relative to the optimal NiCl2 sample amounted to 50%; the sedimented (bound) concentration, maximum at 4 h was found to be 13.6 µM.
